From patent US11466286B2, “Methods and compositions for conferring and/or enhancing herbicide tolerance using protoporphyrinogen oxidase or variant thereof” (FarmHannong Co., Ltd., priority 2016, dated 2022)
Changes are numbered by the printed parent chain. Names and notes keep the numbering of the source.

B1: CyPPO13 F373I: CyPPO13 (SEQ ID NO: 4) PPO variant (protein)
chain: MNPATPEPLNAEVVVIGAGISGLTLAWRLQQGLSARGGSPQAVLLAEASSRVGGCISTQSKDGYRWEEGPNSFTPTPALLNLIAEVGLTDQLVLADAKLPRYIYWEGALLPVPLSPAAALGSRLLSVGGKLRALQGLLGFVPPPPGHEETVRQFFRRQLGSEVAERLVEPFTSGVYAGDPDQLSAVAAFPRVAGLEERYGSLFAGALQALRQRPQPSPAAIQPPPKRGQLGNLRQGLQQLPEALAQKLGDSLRLGWRALQLKRAGELYWVGFETPEGSRWVAARQVVLALPAYEAAALLQELNPPASQLLAEILYPPVAVVALAYPQEALPQPLRGFGHLIPRSQGLRTLGTIWASCLFPERAPQGYHSFLSILGGATDAALARRRGIPPIPALSPEERAQIAHAELSQVLLTRRAEPVYLGERLWPRAIPQYTLGHRQRIAQVQAHLASQTPGIWVCANYLDGVALGDCVRRAEALAQQLLSQV
modifications: Synthetic CyPPO13
B2: CyPPO13 F373C: CyPPO13 (SEQ ID NO: 4) PPO variant (protein)
chain: B1 chain with I373C
modifications: Synthetic CyPPO13
B3: CyPPO13 A177C: CyPPO13 (SEQ ID NO: 4) PPO variant (protein)
chain: B1 chain with A177C, I373F
modifications: Synthetic CyPPO13
B4: CyPPO13 A177L + F373I: CyPPO13 (SEQ ID NO: 4) PPO variant (protein)
chain: B1 chain with A177L
modifications: Synthetic CyPPO13
B5: CyPPO13 F373M: CyPPO13 (SEQ ID NO: 4) PPO variant (protein)
chain: B1 chain with I373M
modifications: Synthetic CyPPO13
B6: CyPPO13 A177L + F373L: CyPPO13 (SEQ ID NO: 4) PPO variant (protein)
chain: B1 chain with A177L, I373L
modifications: Synthetic CyPPO13
B7: CyPPO10 F360M: CyPPO10 (SEQ ID NO: 2) PPO variant (protein)
chain: MIEVDVAIVGGGLSGLSVAWRLQRSAPHYSGVLLEASDRLGGNITTQAAEGFVWELGPNSFAPTPALLQLIAEVGLHSELIRGDRHLPRYIYWRGELYPLEPTRPLALATSNLLSPWGKVRAALGALGFVPPYLGSGDESVDSFFRRHLGQEVAERLVAPFVSGVYAGDPQQLSAAAAFRRIAQLEKLGGSLIAGALRLRRQQPPQPKPPAQVQMRPGELGSFREGLAALPRAIAQQLKAPLHLQTPVEAITPEPKGGYLLRSGEQTWHARSVVLATPAYQTAELVAPFQPAIARALATIPYPTVACVVLAYPAGLGRSVRPGFGVLVPRGQGIRTLGTIWSSCLFPQRTPAGWQVFTSMIGGATDPDLASLREEAIVEQVQQDLTRLLDLPAAKARLLGMKVWRRAIPQYIVGYPQQWQQVTHALTQTPGLFLCSNYAEGVALGDRVEHGNRTAAAVAAYLAGGQS
modifications: Synthetic CyPPO10
B8: CyPPO10 V305M: CyPPO10 (SEQ ID NO: 2) PPO variant (protein)
chain: B7 chain with V305M, M360F
modifications: Synthetic CyPPO10
B9: CyPPO10 F360I: CyPPO10 (SEQ ID NO: 2) PPO variant (protein)
chain: B7 chain with M360I
modifications: Synthetic CyPPO10
B10: CyPPO10 F360C: CyPPO10 (SEQ ID NO: 2) PPO variant (protein)
chain: B7 chain with M360C
modifications: Synthetic CyPPO10
B11: CyPPO10 A167C: CyPPO10 (SEQ ID NO: 2) PPO variant (protein)
chain: B7 chain with A167C, M360F
modifications: Synthetic CyPPO10
B12: CyPPO10 F360L: CyPPO10 (SEQ ID NO: 2) PPO variant (protein)
chain: B7 chain with M360L
modifications: Synthetic CyPPO10

Assays:
CyPPO13 = test: PPO enzyme activity and IC50 by herbicides, CyPPO13 wild type and variants (MBP-PPO fusion); type: biochemical, Synechococcus sp. JA-3-3Ab; settings: PPO enzyme activity of CyPPO13 protein, wild type = 100
In short: (§1)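 MBP-fused wild-type and variant CyPPO10 or CyPPO13 were expressed in E. coli BL21(DE3) and purified. After a 30 min oxygen-depleting preincubation with glucose oxidase-catalase in 50 mM Tris-Cl pH 8.0, 50 mM NaCl and 0.04% Tween 20, reactions used 50 μM substrate for 30 min at room temperature. Protoporphyrin IX fluorescence (ex 405/em 633 nm) was quantified against a standard curve.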

A. thaliana = test: Seed germination of A. thaliana transformants on ½ MS media containing herbicides; type: in vivo, Arabidopsis thaliana; settings: T3 lines; 25 μM glufosinate, 25 μM glufosinate+70 nM tiafenacil, or 25 μM glufosinate+30 nM tiafenacil+40 nM saflufenacil; 7 days after sowing
Source text: T3 generation seeds of each transformant were sown in ½ MS media containing herbicides. Col-0 ecotype (wild type Arabidopsis) seeds were used as a control. The kinds of herbicides and concentration are as follows:
In FIGS. 31a to 31c, 10-3 refers to CyPPO10 wild type, 10FM-4-7 to the CyPPO10 F360M transgenic line, 10FL-1-9 to the CyPPO10 F360L transgenic line, 10FC-3-5 to the CyPPO10 F360C transgenic line, 10AC-5-4 to the CyPPO10 A167C transgenic line, 13-1 to CyPPO13 wild type, 13FM-3-1 to the CyPPO13 F373M transgenic line, 13FC-1-1 to the CyPPO13 F373C transgenic line, 13FI-2-1 to the CyPPO13 F373I transgenic line, 13AC-1-3 to the CyPPO13 A177C transgenic line, CyPPO13_ALFL to the CyPPO13 A177L+F373L transgenic line, and CyPPO13_ALFI to the CyPPO13 A177L+F373I transgenic line, respectively.

CyPPO10 = test: PPO enzyme activity and IC50 by herbicides, CyPPO10 wild type and variants (MBP-PPO fusion); type: biochemical, Thermosynechococcus elongatus BP-1; settings: PPO enzyme activity of CyPPO10 protein, wild type = 100
In short: as §1

[1] = tested on: PPO-deficient BT3 E. coli (ΔPPO); test: Herbicide tolerance of PPO-deficient BT3 E. coli transformed with CyPPO10/CyPPO13 wild type or mutant genes on herbicide-containing LB agar; type: cell-based; set-up: key: the level of herbicide tolerance of the wild type was represented by “−”; if higher, adding “+” to the max “+++++”; if higher, adding “+” to the max “+++++”; if higher, adding “+” to the max “+++++”; if higher, adding “+” to the max “+++++”; if higher, adding “+” to the max “+++++”; settings: BT3 E. coli with CyPPO10 gene; relative to CyPPO10 wild type
Source text: In order to enhance PPO-inhibiting herbicide tolerance of CyPPO10 and CyPPO13, the amino acids interacting with herbicide, as identified in the Example 3, were mutated. After PPO-deficient BT3 E. coli (ΔPPO) was transformed with a PPO gene having such mutation, and then cultured with PPO-inhibiting herbicide, to observe the growth of transformed E. coli, as follows:
The pET303-CyPPO10 or pET303-CyPPO13 plasmids prepared in the Example 4, and plasmids containing each mutant gene, were transformed into BT3 competent cell by a heat shock method, and cultured in a LB agar medium containing ampicillin (100 μg/ml).
For seed culture of BT3 transformants, a single colony thereof was cultured in 3 ml of LB broth (LPSS) containing ampicillin for 12 hours or more, and 50˜100 μl of the cultured solution was further cultured until absorbance (OD600) reaches 0.5 to 1. Then, the obtained cultured solution was diluted with LB broth to adjust absorbance (OD600) to 0.5, and was diluted again 5 times by a factor of one tenth with LB broth.
LB (25 g/L), Bacto agar (12 g/L), ampicillin (100 μg/ml) and various herbicides (0˜200 μM) were mixed, to prepare herbicide-containing media.
Ten microliters of the diluted solution were dropped on the herbicide-containing media, and the media were incubated with light for 16-20 hours at 37° C. The growth level and PPO-inhibiting herbicide tolerance of BT3 transformed with each gene were evaluated.
The herbicide tolerance was evaluated relatively compared to CyPPO wild type, and shown in following Tables 8 to 11 and FIGS. 11 to 29:
In the Tables 8 to 11, the level of herbicide tolerance of the wild type was represented by “−”, and the level of herbicide tolerance was graduated by representing the equal level of tolerance by “−”, and if higher, adding “+” to the max “+++++”.
FIGS. 11 to 19 (wild type and variants of CyPPO10) and FIGS. 20 to 29 (wild type and variants of CyPPO13) show the results of culturing E. coli transformed with CyPPO genes (wild type and variant type), and the concentration described on the top is concentration of herbicide treated. Six columns of each concentration were sequentially diluted 5 times by a factor of one tenth with the E. coli culture solution to the right, and the most left column is the result of E. coli culture solution OD600=0.5.

Row | Molecule | Activity (%) (CyPPO13) | Seed germination in media containing herbicides (A. thaliana) | Activity (%) (CyPPO10) | further results
1 | B1 | 83% | germinated |  | 
2 | B2 | 86% | germinated |  | 
3 | B3 | 98% | germinated |  | 
4 | B4 | 66% | germinated |  | 
5 | B5 | 98% | germinated |  | 
6 | B6 | 68% | germinated |  | 
7 | B7 |  | germinated | 93% | 
8 | B8 |  |  | 100% | Herbicide tolerance level, Acifluorfen (up to 200 μM) [1]: +++; Herbicide tolerance level, Fomesafen (up to 200 μM) [1]: ++++; Herbicide tolerance level, Pentoxazone (up to 200 μM) [1]: ++++; Herbicide tolerance level, Pyraclonil (up to 200 μM) [1]: +++; Herbicide tolerance level, Pyraflufen-ethyl (up to 200 μM) [1]: +; Herbicide tolerance level, Saflufenacil (up to 200 μM) [1]: +; Herbicide tolerance level, Tiafenacil (up to 200 μM) [1]: ++
9 | B9 |  | germinated | 67% | 
10 | B10 |  | germinated |  | 
11 | B11 |  | germinated | 98% | 
12 | B12 |  | germinated | 59% | 
